Source: the DeepSol protein solubility set

Test: soluble on expression in E. coli; label from the status in PepcDB or PDB records

MQASASNSSSYTVNASVLHVRAGSSTSHDIISRVYNGQSLNVIGEENGWYKININGKTGFVSGEFVSKNGTSNSNVSTTGGKNKVTADVLRVRTAPNTSSSVSGRVYEGQTLNVIGQENGWVKINHNGQVGYVSGEFVSGVSSNAGSSNSNTNNNNQESVKPASGNYTVNVSSLRVRTGPSTSHTTVGSVTKGQVVQVVGEVQDWFKINYAGQTAYVSKDYVTKGGSSDNVTQGNNQNNNQNNNVTVQTGGTYVVNATSLRVRTGPATYHSVIGGVLNGTTLNVIGSEGSWFKVNYQGKTGYVSSEFMKFVKGGTTTPEQPKQPEQPNQGAIGDYYINASALNVRSGEGTNYRIIGALPQGQKVQVISENSGWSKINYNGQTGYIGTRYLSKTPVGGAVDNNKPNNNQNNNQNNNNNTGNNSGNSSSILAYAKGMQGVPYVWGGTSANGVDCSGYIYHVFKKFGHNISRQSVAGYWGSLPQTSNPQPGDLIYFQNTYKSGPSHMGIYLGGGSFIQAGDKGVAIASLSNSYWKSHFLGYTKAPLEHHHHHH
soluble on expression in E. coli: soluble

LLGNTIHVPCQPCRHGHGAPSRGLRGRPADRWPVARATPTLHVCPQNQGVGLDFVRKPEYGRLRWPAYPAGTNNDRLISMRDGGIVALPQLTDEQRAAALEKAAAARRARAELKDRLKRGGTNLTQVLKDAESDEVLGKMKVSALLEALPKVGKVKAQEIMTELEIAPTRRLRGLGDRQRKALLEKFGSA
soluble on expression in E. coli: soluble

MENQLTKSVEERTFQYQDSLPSLPVPALEESLKKYLESVKPFANEDEYKKTEEIVQKFQEGAGKRLHQKLLERARGKRNWLEEWWLNVAYLDVRIPSQLNVNFVGPCPHFEHYWPAREGTQLERGSMMLWHNLNYWQLLRREKLPVHKSGNTPLDMNQFRMLFSTCKVPGITRDSIMNYFKTESEGHCPTHIAVLCRGRAFVFDVLHEGCLITPPELLRQLTYIHKKCSNEPVGPSIAALTSEERTRWAKAREYLISLDPENLTLLEKIQTSLFVYSIEDSSPHATPEEYSQVFEMLLGGDPSVRWGDKSYNLISFANGIFGCCCDHAPYDAMVMVNIAHYVDERVLETEGRWKGSEKVRDIPLPEELVFTVDEKILNDVSQAKAQHLKAASDLQIAASTFTSFGKKLTKEEALHPDTFIQLALQLAYYRLHGRPGCCYETAMTRYFYHGRTETVRSCTVEAVRWCQSMQDPSASLLERQQKMLEAFAKHNKMMKDCSHGKGFDRHLLGLLLIAKEEGLPVPELFEDPLFSRSGGGGNFVLSTSLVGYLRVQGVVVPMVHNGYGFFYHIRDDRFVVACSSWRSCPETDAEKLVQMIFHAFHDMIQLMNTAHL
soluble on expression in E. coli: soluble

MSLDRRAQQRLALGEFLRARRRAAVRAELGLPDMPRSRTSGLRREEVAVQAGVSVTWYTWLEQGRDINPSRQVLDAIARALRLSPSEHDYVLALGGYTVDHAVTAGPPPPQIQRFLDALGGHPAFAITSDWGIAAWNTAYAALYPNIERVPPPDRNLLWLVFMDPAIRELLPDWDADSRRFLAEFRADAGPMVGEPSYTALVSRLSSESPHFATAWRAADIERFTSRERLFRHPVVGELRLEHHQVAPVDVPDIQIVAYLPEPGSVAAERLRRLVGQAGDTAREGHHHHHH
soluble on expression in E. coli: soluble

MGSDKIHHHHHHMHVFNYGRSYLERGDARPIYLPELPLVRGALLPQAPLDMAGALRDAAPDAWGRRVIINRLMGLKGVGAHAVEFDELTYLLHSGSDRIGALDFQTSPDRYRPREAENATLEELLEAAERVDRGEPIPPALDKALFHGSSIGGARPKALIEDGQEKFIAKFSATNDTYAIVKAEYVAMRLAKEAAGLTVAAVRLVKANGKDVLLVKRFDRERTGAGWTRRAMVSALTLLGLSEMQARYASYHDLTDIIRARFTEPRDSLRELYGRMVFNVLSGNTDDHARNHAAFWNGESLALTPAYDLCPQQRTGREANQAMLIGQEDRRSRLETCRLAASAFLLNDVEARALIHAQIDAIGAAWDGICDEADLSKIDRAFLWRRQFLNDYAFEGFGR
soluble on expression in E. coli: not soluble

MTSTTPLEPERWTPHATVATIVEKDGKFLLVEEKRLINSQGDFGIVYNQPAGHVDEGESIMAAAIRETLEETRWQVKLKHLVGIYIFTAPANNVTYHRYCFAAEATVHQAESQLDDGILDAKWLSWEEIQQLDNLRSPLVKRCIKDHIDGKHYPLDVIYEYADHEHTDDENKSQELEDRND
soluble on expression in E. coli: soluble
